Source: paper PMC2192333 (The Journal of Experimental Medicine, 1996)

B1: D137A (protein, UniProt P20701 26-1170, looked up, variant D137A)
Integrin alpha-L: YNLDVRGARSFSPPRAGRHFGYRVLQVGNGVIVGAPGEGNSTGSLYQCQSGTGHCLPVTLRGSNYTSKYLGMTLATDPTDGSILACDPGLSRTCDQNTYLSGLCYLFRQNLQGPMLQGRPGFQECIKGNVDLVFLFAGSMSLQPDEFQKILDFMKDVMKKLSNTSYQFAAVQFSTSYKTEFDFSDYVKRKDPDALLKHVKHMLLLTNTFGAINYVATEVFREELGARPDATKVLIIITDGEATDSGNIDAAKDIIRYIIGIGKHFQTKESQETLHKFASKPASEFVKILDTFEKLKDLFTELQKKIYVIEGTSKQDLTSFNMELSSSGISADLSRGHAVVGAVGAKDWAGGFLDLKADLQDDTFIGNEPLTPEVRAGYLGYTVTWLPSRQKTSLLASGAPRYQHMGRVLLFQEPQGGGHWSQVQTIHGTQIGSYFGGELCGVDVDQDGETELLLIGAPLFYGEQRGGRVFIYQRRQLGFEEVSELQGDPGYPLGRFGEAITALTDINGDGLVDVAVGAPLEEQGAVYIFNGRHGGLSPQPSQRIEGTQVLSGIQWFGRSIHGVKDLEGDGLADVAVGAESQMIVLSSRPVVDMVTLMSFSPAEIPVHEVECSYSTSNKMKEGVNITICFQIKSLIPQFQGRLVANLTYTLQLDGHRTRRRGLFPGGRHELRRNIAVTTSMSCTDFSFHFPVCVQDLISPINVSLNFSLWEEEGTPRDQRAQGKDIPPILRPSLHSETWEIPFEKNCGEDKKCEANLRVSFSPARSRALRLTAFASLSVELSLSNLEEDAYWVQLDLHFPPGLSFRKVEMLKPHSQIPVSCEELPEESRLLSRALSCNVSSPIFKAGHSVALQMMFNTLVNSSWGDSVELHANVTCNNEDSDLLEDNSATTIIPILYPINILIQDQEDSTLYVSFTPKGPKIHQVKHMYQVRIQPSIHDHNIPTLEAVVGVPQPPSEGPITHQWSVQMEPPVPCHYEDLERLPDAAEPCLPGALFRCPVVFRQEILVQVIGTLELVGEIEASSMFSLCSSLSISFNSSKHFHLYGSNASLAQVVMKVDVVYEKQMLYLYVLSGIGGLLLLLLIFIVLYKVGFFKRNLKEKMEAGRGVPNGIPAEDSEQLASGQEAGDPGCLKPLHEKDSESGGGKD
B2: H/M53: human Ile-126 and Asn-129 replaced with murine residues Met and Lys, respectively (protein, UniProt P20701 26-1170, looked up, variant I126M N129K)
Integrin alpha-L: YNLDVRGARSFSPPRAGRHFGYRVLQVGNGVIVGAPGEGNSTGSLYQCQSGTGHCLPVTLRGSNYTSKYLGMTLATDPTDGSILACDPGLSRTCDQNTYLSGLCYLFRQNLQGPMLQGRPGFQECMKGKVDLVFLFDGSMSLQPDEFQKILDFMKDVMKKLSNTSYQFAAVQFSTSYKTEFDFSDYVKRKDPDALLKHVKHMLLLTNTFGAINYVATEVFREELGARPDATKVLIIITDGEATDSGNIDAAKDIIRYIIGIGKHFQTKESQETLHKFASKPASEFVKILDTFEKLKDLFTELQKKIYVIEGTSKQDLTSFNMELSSSGISADLSRGHAVVGAVGAKDWAGGFLDLKADLQDDTFIGNEPLTPEVRAGYLGYTVTWLPSRQKTSLLASGAPRYQHMGRVLLFQEPQGGGHWSQVQTIHGTQIGSYFGGELCGVDVDQDGETELLLIGAPLFYGEQRGGRVFIYQRRQLGFEEVSELQGDPGYPLGRFGEAITALTDINGDGLVDVAVGAPLEEQGAVYIFNGRHGGLSPQPSQRIEGTQVLSGIQWFGRSIHGVKDLEGDGLADVAVGAESQMIVLSSRPVVDMVTLMSFSPAEIPVHEVECSYSTSNKMKEGVNITICFQIKSLIPQFQGRLVANLTYTLQLDGHRTRRRGLFPGGRHELRRNIAVTTSMSCTDFSFHFPVCVQDLISPINVSLNFSLWEEEGTPRDQRAQGKDIPPILRPSLHSETWEIPFEKNCGEDKKCEANLRVSFSPARSRALRLTAFASLSVELSLSNLEEDAYWVQLDLHFPPGLSFRKVEMLKPHSQIPVSCEELPEESRLLSRALSCNVSSPIFKAGHSVALQMMFNTLVNSSWGDSVELHANVTCNNEDSDLLEDNSATTIIPILYPINILIQDQEDSTLYVSFTPKGPKIHQVKHMYQVRIQPSIHDHNIPTLEAVVGVPQPPSEGPITHQWSVQMEPPVPCHYEDLERLPDAAEPCLPGALFRCPVVFRQEILVQVIGTLELVGEIEASSMFSLCSSLSISFNSSKHFHLYGSNASLAQVVMKVDVVYEKQMLYLYVLSGIGGLLLLLLIFIVLYKVGFFKRNLKEKMEAGRGVPNGIPAEDSEQLASGQEAGDPGCLKPLHEKDSESGGGKD

Assays:
[1] = tested on: ICAM-1; conditions: cited from earlier work
[2] = tested on: ICAM-1; assay: Adhesion of 293 cells transfected with CD11a I domain mutants/CD18 to ICAM-1Fc; assay type: cell-based, human; conditions: wide range of concentrations of ICAM-1, data not shown

| Molecule | binding to ICAM-1 [1] | adhesion to ICAM-1, wide range of ICAM-1 concentrations [2] |
| --- | --- | --- |
| B1 | critical to ICAM-1 binding |  |
| B2 |  | identical binding as that of wild-type CD11a |
